Consider six substances from EP2305804B1.

Several values for one entry are separate records, joined by “and”; a condition that tells them apart may be missing. Identical values can stand only once.

The assay has as its target Rabbit GH receptor, full length, stably expressed on murine FDC-P1 cells (GH-R4 cell line) (rabbit) (UniProt P19941). Put plainly: cell-based or functional assay.
Sequence of UniProt P19941 (P19941 19-638): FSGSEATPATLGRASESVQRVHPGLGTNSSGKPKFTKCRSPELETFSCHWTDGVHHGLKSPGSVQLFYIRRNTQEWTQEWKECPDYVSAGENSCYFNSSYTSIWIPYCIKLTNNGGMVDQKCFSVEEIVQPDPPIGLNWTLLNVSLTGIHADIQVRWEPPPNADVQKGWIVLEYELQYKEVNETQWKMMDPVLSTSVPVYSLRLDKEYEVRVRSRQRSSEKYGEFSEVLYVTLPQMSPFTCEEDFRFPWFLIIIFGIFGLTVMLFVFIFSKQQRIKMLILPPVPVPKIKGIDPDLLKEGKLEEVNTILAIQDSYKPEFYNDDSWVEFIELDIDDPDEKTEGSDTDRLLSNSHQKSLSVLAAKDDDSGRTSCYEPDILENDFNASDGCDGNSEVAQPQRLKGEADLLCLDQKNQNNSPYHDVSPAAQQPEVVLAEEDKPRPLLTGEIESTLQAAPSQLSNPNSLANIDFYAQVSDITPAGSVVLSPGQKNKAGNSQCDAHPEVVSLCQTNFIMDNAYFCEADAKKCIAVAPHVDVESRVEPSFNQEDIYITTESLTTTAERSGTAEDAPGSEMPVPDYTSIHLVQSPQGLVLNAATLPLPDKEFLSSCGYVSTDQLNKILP

“hGH cysteine mutein S144C (from UniProt P01241 27-217) (ligand)”: the Mean EC50, MTS cell proliferation assay, GH-R4 cells is 1.6 ng/mL.

Turning to “PEG-S144C, monoPEGylated hGH cysteine mutein S144C (5 kDa maleimide-PEG) (from UniProt P01241 27-217) (ligand)”, the EC50, individual experiment, MTS cell proliferation assay, GH-R4 cells was 40 ng/mL and 45 ng/mL; the Mean EC50, MTS cell proliferation assay, GH-R4 cells was determined as 43 ng/mL; the Mean EC50 in molar units, MTS cell proliferation assay, GH-R4 cells was 2 nM.

Take “hGH cysteine mutein T148C (from UniProt P01241 27-217) (ligand)”: the EC50, individual experiment, MTS cell proliferation assay, GH-R4 cells (T148C-lotA) was 0.4 ng/mL and 0.5 ng/mL; the EC50, individual experiment, MTS cell proliferation assay, GH-R4 cells (T148C-lotB) is 1.5 ng/mL and 1.9 ng/mL and 3.1 ng/mL; the Mean EC50, MTS cell proliferation assay, GH-R4 cells (T148C-lotA) amounted to 0.5 ng/mL; the Mean EC50, MTS cell proliferation assay, GH-R4 cells (T148C-lotB) turned out to be 2.5 ng/mL.

Consider “Wild-type recombinant human growth hormone (rhGH), secreted to the E. coli periplasm with the stII signal sequence (from UniProt P01241 27-217) (ligand)”, for which the EC50, individual experiment, MTS cell proliferation assay, GH-R4 cells was 0.8 ng/mL and 1.1 ng/mL; the Mean EC50, MTS cell proliferation assay, GH-R4 cells turned out to be 0.8 ng/mL.

Substance “hGH cysteine mutein T3C, disulfide-linked homodimer (from UniProt P01241 27-217) (ligand)” gave a Mean EC50, MTS cell proliferation assay, GH-R4 cells (T3C dimer) of 1.4 ng/mL.

Substance “PEG-T3C, monoPEGylated hGH cysteine mutein T3C (5 kDa maleimide-PEG) (from UniProt P01241 27-217) (ligand)” registered a Mean EC50, MTS cell proliferation assay, GH-R4 cells of 1.6 ng/mL and a Mean EC50 in molar units, MTS cell proliferation assay, GH-R4 cells of 0.07 nM.
